Consider five molecules from patent US12459987B2, “Monoclonal antibodies for prevention and treatment of herpes simplex viral infections” (priority 2019, dated 2025).

To fix the notation:
B1: HSV010-20: gB-1 specific mouse monoclonal IgG; IgH SEQ ID NO: 64, IgL SEQ ID NO: 66 (antibody, V domains shown)
VH: DVQLQESGPGMVRPSQSLSLTCTVTGYSITSGYDWHWIRHFPGNKLEWMGYISYSGLTNYNPSLRSRFSITHDTSKNHFFLKLNSVTTEDTATYYCARGPPWYFDVWGTGTTVTVSSA
VL: DIVMTQSQKFMSTSVGGRVSITCKASQIVRATVAWYQQKPGQSPKPLIYLASNRHTGVPDRFTGSGSGTDFTLTISNVQSEDLADYFCLQYWNYPYTFGGGTKLEIKR
modifications: HSV010-20 heavy chain; HSV010-20 light chain
B2: HSV010-4: gB-1 specific mouse monoclonal IgG; IgH SEQ ID NO: 32, IgL SEQ ID NO: 34 (antibody, V domains shown)
VH: QVQLKESGPGLVAPSQSLSITCTVSGFSLSRHDVSWVRQPPGKGLEWLGVIWGDGSTNYHSALISRLSISKDNSKSQVFLKLNSLQNDDTATYYCAKEDYGIFPYWGQGTLVTVSAA
VL: DIKMTQSPSSMYASLGEKVTITCKASQDISSYLSWFQQKPGKSPKTLIYRANRLVDGVPSRFSGSGSGQDYSLSISSLDYEDMGIYYCLQYDEFPLTFGAGTKLELKR
modifications: HSV010-4 heavy chain; HSV010-4 light chain
B3: HSV010-8: gB-1 specific mouse monoclonal IgG; IgH SEQ ID NO: 68, IgL SEQ ID NO: 70 (antibody, V domains shown)
VH: B2 VH with S30N, R31N, H32Y, N87T
VL: B2 VL with K18R, S30N, S74T, D79E, D82N
modifications: HSV010-8 heavy chain; HSV010-8 light chain
B4: HSV010-16: gB-1 specific mouse monoclonal IgG; IgH SEQ ID NO: 76, IgL SEQ ID NO: 78 (antibody, V domains shown)
VH: QIQLVQSGPELKKPGETVKISCKASGYTFTTYGMSWVKQAPGKDLKWMGWINTYSGVSTYGDDFKGRFALSLETSASTAYLQINNLKNEDTATYFCAQLNYGMDYWGQGTSVTVSSA
VL: DIVMTQSHKFMSTSVGDRVSITCKASQDVSTSLAWYQQKPGQSPKLLIYSASYRYTGVPDRFTGSGSGTDFTFTISSVQAEDLAVYYCHQHYSIPRTFGGGTKLEIKR
modifications: HSV010-16 heavy chain; HSV010-16 light chain
B5: HSV010-15: gB-1 specific mouse monoclonal IgG; IgH SEQ ID NO: 72, IgL SEQ ID NO: 74 (antibody, V domains shown)
VH: QVQLQQPGAELVKPGASVKLSCKASGYTFTSYWIHWVQQRPGQGLEWIGMIHPNSGITNYSEKFKSKATLTLDKSSSTAYMQLISLTSEDSAVYYCARGSSSGSAWFAYWGQGTLVTVSAA
VL: DIQMTQSSSYLSVSLGGRVTITCKASDHINNWLPWYQQKPGNAPRLLISGATSLETGVPSRFSGSGSGKDYTLSITSLQTEDVATYYCQQYWSSPLTFGAGTKLELKR
modifications: HSV010-15 heavy chain; HSV010-15 light chain

Where a chain is given by its changes, count along the chain named.

The target in the first assay is gB-1 (Human herpesvirus 1, UniProt P10211). The assay can be described thus: Luminex competition: inhibition of binding of BMPC-23 human IgG to gB-1. Set-up: species or system HSV-1. To be noted: BMPC-23 human IgG 2 ng/ml. The procedure: FIGS. 10A-10G show the capacity of gB-1 specific mouse monoclonal IgG antibodies to inhibit binding of BMPC-23 human IgG antibodies to gB-1.
Finding BMPC-like antibodies. Nine out of 10 gB-1 specific mouse monoclonal IgG antibodies in FIG. 3 were tested for their capacity to inhibit binding of BMPC-23 human IgG antibodies to gB-1. Serially diluted, gB-1 specific mouse monoclonal antibodies or irrelevant, control mouse antibody (H33Lγ1) were incubated with gB-1 conjugated Luminex beads. After incubation, fixed concentration (2 ng/ml) of BMPC-23 human IgG antibodies were added to each well. After washing, mouse anti-human lgG-PE was added to detect binding of human BMPC-23 antibodies. […] Strong inhibition by HSV010-4 (>95% at 222 ng/ml), HSV010-7 (>90% at 222 ng/ml), and HSV010-34 (>80% at 222 ng/ml), shown in FIGS. 10B, 10F, and 10G, respectively, indicates these antibodies bind epitopes on gB-1 closely overlapping with the one recognized by BMPC-23. Therefore, similar protective efficacy as BMPC-23 is expected from these antibodies (experiments in progress). […] Protective efficacy of these antibodies need to be tested (experiments in progress).
For the molecule B1, the “Inhibition of binding of BMPC-23 human IgG antibodies to gB-1 (in words)” value is “No inhibition”.

Still in this assay, the particulars now being: Table 3 summary.
Regarding B2, the “Competition with BMPC-23” value is given as “Strong”.
Same read-out and setting: the value for B1 was “No”.

Another assay deals with HSV-2 G infected cell lysates. The assay can be described thus: ELISA binding of recombinant antibodies to HSV-2 G infected cell lysates. Also on record: species or system HSV-2 G strain. The settings on record: Table 3 summary. As for the experimental part:
Binding of recombinant antibodies to HSV-2 G lysates was tested by ELISA. Both heavy and light chain V(D)J rearrangements were amplified from selected single B-cell culture wells (22D10, 32H6, 33B8, and 35H7) by standard RT-PCR. These cloned V(D)J rearrangements were introduced into expression vectors. Recombinant antibodies were obtained by co-transfection of these expression vectors into Expi293F cells. ≥4 mg of purified IgGs was obtained (not shown). […]
Briefly, mice were vaccinated with ΔgD-2 and then 16 days after vaccination, the draining, inguinal lymph nodes were harvested. GC B cells were isolated from these tissues and were cultured in Nojima cultures. Although overall cloning efficiency of GC B cells from these (shipped) tissues was lower than those from freshly isolated tissues (6% vs. 20%), 50 GC clones were obtained that were specific to HSV-2 G strain (HSV-2 G or HSV2-G) lysate. GC B cells from inguinal lymph nodes of mice vaccinated with ΔgD-2 were sorted directly into 96-well plates (1 cell/well). These GC B cells were then cultured in the presence of NB-21.2D9 feeder cells. After culture, presence of IgG was first determined by ELISA, and then the reactivity of culture supernatant IgG against HSV-2 G lysates (HSV-2 G) and uninfected Vero lysates were tested by ELISA.
Based on the obtained V(D)J sequences from each B-cell culture, paired heavy and light chains were re-expressed (as recombinant mouse IgG1 and IgG2c antibodies) in Expi293F cells (Kuraoka et al. Immunity 2016; DiLillo et al. Nature Medicine 2013). […] As expected, all recombinant antibodies reacted specifically with HSV-2 G lysates (FIG. 3). […] Binding of recombinant antibodies to HSV-2 G lysates was tested by ELISA. Both heavy and light chain V(D)J rearrangements were amplified from selected single B-cell culture wells (22D10, 32H6, 33B8, and 35H7) by standard RT-PCR. These cloned V(D)J rearrangements were introduced into expression vectors. Recombinant antibodies were obtained by co-transfection of these expression vectors into Expi293F cells. ≥4 mg of purified IgGs was obtained (not shown). […] These recombinant antibodies (≥4 mg each) were tested for identification of reacting antigen(s), in an in vitro FcγRIV activation assay (Promega FcγRIV ADCC Reporter Bioassay)(FIG. 4), and in vivo protection assay. […]
(In an ELISA, binding on a coated surface is turned into a signal by an enzyme label.)
In the case of B2, the “Binding to HSV-lysate” value is listed as “Yes”.
As for B3, the “Binding to HSV-lysate” value is given as “Yes”.
Still for that read-out and setting: the value for B4 was “Yes”; that for B1 was “Yes”.
With B5, the “Binding to HSV-lysate” value was “Yes”.

Another assay deals with glycoprotein B of HSV-1 (gB-1) (Human herpesvirus 1, UniProt P10211). Briefly: Luminex multiplex assay, binding to gB-1. The settings on record: Table 3 summary. The procedure: FIGS. 9A and 9B are graphs of median fluorescence intensity (MFI) versus IgG concentration (ng/ml), showing the binding of various recombinant antibodies to gB-1 as measured by Luminex multiplex assay.
BMPC-23 binds HSV-1 gB (gB-1). The gB-1 binding of the antibodies was determined by Luminex multiplex assay. Mixtures of antigen (gB-1)-conjugated microspheres (1,000 counts each) were added to each well of 96-well filter plates (Millipore). After washing with PBS containing 1% BSA, 0.05% Tween 20 and 0.05% NaN3, serially diluted recombinant antibodies (5E7, 19G7, 18G4, 22E10, 3A2, 17G3, 22D10, 32H6, 33B8, 25H7, BMPC-23, and S5V2-29) were added to the plates and incubated for 2 hours at room temperature, with mild agitation of the plates. Samples were diluted in PBS containing 1% cow milk, 1% BSA, 0.05% Tween 20 and 0.05% NaN3. After washing, PE goat anti-mouse IgG was added to the plates and incubated for 1 hour at room temperature with mild agitation. After washing, microspheres were resuspended in PBS containing 1% BSA, 0.05% Tween 20 and 0.05% NaN3 and fluorescent signals from each microsphere were measured in a Bio-Plex® 3D machine.
Finding gB-1 specific HSV antibodies. After Nojima culture (single B-cell culture), HSV-specific antibodies were cloned from germinal center B cells and tested for binding to HSV-1 gB-1 by Luminex multiplex assay as described above. FIGS. 9A and 9B show the gB-1 binding results for 10 antibodies in comparison with BMPC-23. With the exception of BMPC-23, the antibodies in Table 3 were derived from germinal center B cells (lymph nodes) taken 15-17 days after primary vaccination with ΔgD-2. BMPC-23 was derived from bone marrow plasmacytes taken 2 weeks post-boost with ΔgD-2. Nucleotide sequences and amino acid sequences for the heavy-chains and light chains are shown in Table 4, as are the amino acid sequences for the light chain and heavy chain CDR1, CDR2, and CDR3.
Turning to B2, the Target antigens entry is on record as “gB”.
The same measure, in the same setting: as for B3, the entry is “gB”; as for B4, “gB”; as for B1, “gB”.
The same measure, in the same setting: the value for B5 was “gB”.
